Measured values taken from paper PMC9287412, “Cryo-EM structure of the human Kv3.1 channel reveals gating control by the cytoplasmic T1 domain” (Nature Communications, 2022).

Molecular target: the molecule itself
Assay: cryo-EM structure; purified Kv3.1a, 20 uM, in 20 mM HEPES pH 7.5, 100 mM NaCl, 50 mM KCl, 0.04% digitonin; apo, with 1 mM EDTA or with 400 uM ZnCl2; subunits within the tetrameric channel

B1: human Kv3.1a channel (full-length human Kv3.1, isoform A) (natural protein, UniProt P48547 1-511, looked up)
chain: MGQGDESERIVINVGGTRHQTYRSTLRTLPGTRLAWLAEPDAHSHFDYDPRADEFFFDRHPGVFAHILNYYRTGKLHCPADVCGPLYEEELAFWGIDETDVEPCCWMTYRQHRDAEEALDSFGGAPLDNSADDADADGPGDSGDGEDELEMTKRLALSDSPDGRPGGFWRRWQPRIWALFEDPYSSRYARYVAFASLFFILVSITTFCLETHERFNPIVNKTEIENVRNGTQVRYYREAETEAFLTYIEGVCVVWFTFEFLMRVIFCPNKVEFIKNSLNIIDFVAILPFYLEVGLSGLSSKAAKDVLGFLRVVRFVRILRIFKLTRHFVGLRVLGHTLRASTNEFLLLIIFLALGVLIFATMIYYAERIGAQPNDPSASEHTHFKNIPIGFWWAVVTMTTLGYGDMYPQTWSGMLVGALCALAGVLTIAMPVPVIVNNFGMYYSLAMAKQKLPKKKKKHIPRPPQLGSPNYCKSVVNSPHHSTQSDTCPLAQEEILEINRAGRKPLRGMSI
notes: Voltage-gated potassium channel Kv3.1, human, shorter splice variant Kv3.1a (isoform A, α-isoform), full length, cloned from the mammalian gene collection; Homotetramer in the cryo-EM structures; the longer Kv3.1b was not used; also called shorter α-isoform of Kv3.1; KCNC1 gene product; not shown: Strep-II, C-terminal, cleaved; His10, C-terminal, cleaved; GFP, C-terminal, cleaved
stoichiometry N: 4
